Measurements reported in patent publication US20080241867A1.

Target: hybrid GFP construct containing the protease cleavage sequence SVPSGCG (SEQ ID NO:21) followed by histidine residues (Aequorea victoria (Water jellyfish) (Mesonema victoria)) [GFP: P42212]
Experiment: cell-based or functional assay

- Micrograms of GFP Released by Protease (overnight, IMAC beads): 137 µg
Substance: Pancreatin
